Values of other authors in PMC5700508.

Molecular target: transferrin receptor (Homo sapiens) (UniProt P02786)
Sequence (P02786 101-760): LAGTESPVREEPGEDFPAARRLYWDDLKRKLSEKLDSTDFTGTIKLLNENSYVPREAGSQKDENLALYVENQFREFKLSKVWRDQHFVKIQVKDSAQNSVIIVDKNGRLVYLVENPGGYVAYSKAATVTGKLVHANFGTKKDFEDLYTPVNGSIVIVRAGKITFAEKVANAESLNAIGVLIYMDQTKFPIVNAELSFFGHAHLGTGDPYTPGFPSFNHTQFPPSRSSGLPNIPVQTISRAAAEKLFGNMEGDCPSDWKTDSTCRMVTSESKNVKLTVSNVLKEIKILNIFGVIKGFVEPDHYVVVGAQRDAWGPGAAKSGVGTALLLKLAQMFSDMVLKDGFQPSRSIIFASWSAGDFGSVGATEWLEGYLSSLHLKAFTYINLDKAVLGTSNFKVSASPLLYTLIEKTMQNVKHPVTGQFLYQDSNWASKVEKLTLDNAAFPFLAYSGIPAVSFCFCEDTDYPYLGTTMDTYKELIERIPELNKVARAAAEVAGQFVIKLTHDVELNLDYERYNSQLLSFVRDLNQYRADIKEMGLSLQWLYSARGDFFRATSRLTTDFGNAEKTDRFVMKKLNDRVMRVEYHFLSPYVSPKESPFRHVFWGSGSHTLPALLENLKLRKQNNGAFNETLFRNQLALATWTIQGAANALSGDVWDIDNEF

Kd: 10 nM
Substance: T7 peptide
